Measurements reported in patent US20070224188A1.

Target: biotin-labeled soluble FcRn
Assay: FcRn ELISA pH 6.0

Substance | FcRn pH6.0 (% of wild type)
anti-CD20 IgG1 K439H (antibody) | 99
anti-CD20 IgG1 K439Q (antibody) | 74
anti-CD20 IgG1 L235A (antibody) | 102
anti-CD20 IgG1 L235E (antibody) | 87
anti-CD20 IgG1 L235G (antibody) | 85
anti-CD20 IgG1 L235Q (antibody) | 81
anti-CD20 IgG1 L235R (antibody) | 93
anti-CD20 IgG1 L235S (antibody) | 85
anti-CD20 IgG1 L251F (antibody) | 64
anti-CD20 IgG1 L251H (antibody) | 46
anti-CD20 IgG1 L251I (antibody) | 7
anti-CD20 IgG1 L251W (antibody) | 0
anti-CD20 IgG1 L314F (antibody) | 42
anti-CD20 IgG1 L314I (antibody) | 86
anti-CD20 IgG1 L314V (antibody) | 21
anti-CD20 IgG1 L314W (antibody) | 5
anti-CD20 IgG1 L314Y (antibody) | 64
anti-CD20 IgG1 L328V (antibody) | 101
anti-CD20 IgG1 L432R (antibody) | 38
anti-CD20 IgG1 L432S (antibody) | 70
anti-CD20 IgG1 M252Y (antibody) | 964
anti-CD20 IgG1 N286F (antibody) | 307
anti-CD20 IgG1 N315F (antibody) | 51
anti-CD20 IgG1 N315K (antibody) | 88
anti-CD20 IgG1 N315L (antibody) | 103
anti-CD20 IgG1 N315P (antibody) | 14

Substance | FcRn pH6.0 (% of wild type)
anti-CD20 IgG1 N315R (antibody) | 71
anti-CD20 IgG1 N434F (antibody) | 1010
anti-CD20 IgG1 N434G (antibody) | 358
anti-CD20 IgG1 N434H (antibody) | 855
anti-CD20 IgG1 N434I (antibody) | 6
anti-CD20 IgG1 N434W (antibody) | 1340
anti-CD20 IgG1 N434Y (antibody) | 1620
anti-CD20 IgG1 P238A (antibody) | 90
anti-CD20 IgG1 P238E (antibody) | 76
anti-CD20 IgG1 P238G (antibody) | 66
anti-CD20 IgG1 P238H (antibody) | 72
anti-CD20 IgG1 P238I (antibody) | 94
anti-CD20 IgG1 P238L (antibody) | 115
anti-CD20 IgG1 P238V (antibody) | 102
anti-CD20 IgG1 P238W (antibody) | 87
anti-CD20 IgG1 P238Y (antibody) | 74
anti-CD20 IgG1 P244L (antibody) | 124
anti-CD20 IgG1 P245R (antibody) | 188
anti-CD20 IgG1 P247A (antibody) | 97
anti-CD20 IgG1 P247D (antibody) | 54
anti-CD20 IgG1 P247E (antibody) | 52
anti-CD20 IgG1 P247F (antibody) | 6
anti-CD20 IgG1 P247G (antibody) | 75
anti-CD20 IgG1 P247H (antibody) | 35
anti-CD20 IgG1 P247I (antibody) | 79
anti-CD20 IgG1 P247L (antibody) | 57

Substance | FcRn pH6.0 (% of wild type)
anti-CD20 IgG1 P247M (antibody) | 18
anti-CD20 IgG1 P247N (antibody) | 41
anti-CD20 IgG1 P247Q (antibody) | 26
anti-CD20 IgG1 P247R (antibody) | 72
anti-CD20 IgG1 P247S (antibody) | 81
anti-CD20 IgG1 P247T (antibody) | 75
anti-CD20 IgG1 P247W (antibody) | 0
anti-CD20 IgG1 P247Y (antibody) | 7
anti-CD20 IgG1 P257A (antibody) | 319
anti-CD20 IgG1 P257I (antibody) | 1020
anti-CD20 IgG1 P257M (antibody) | 835
anti-CD20 IgG1 P257N (antibody) | 867
anti-CD20 IgG1 P257S (antibody) | 184
anti-CD20 IgG1 P257V (antibody) | 447
anti-CD20 IgG1 P271T (antibody) | 96
anti-CD20 IgG1 P329Y (antibody) | 107
anti-CD20 IgG1 P343A (antibody) | 110
anti-CD20 IgG1 P343D (antibody) | 102
anti-CD20 IgG1 P343E (antibody) | 345
anti-CD20 IgG1 P343F (antibody) | 89
anti-CD20 IgG1 P343G (antibody) | 110
anti-CD20 IgG1 P343H (antibody) | 191
anti-CD20 IgG1 P343I (antibody) | 114
anti-CD20 IgG1 P343K (antibody) | 232
anti-CD20 IgG1 P343L (antibody) | 125
anti-CD20 IgG1 P343M (antibody) | 83

Substance | FcRn pH6.0 (% of wild type)
anti-CD20 IgG1 P343N (antibody) | 105
anti-CD20 IgG1 P343Q (antibody) | 442
anti-CD20 IgG1 P343R (antibody) | 198
anti-CD20 IgG1 P343S (antibody) | 101
anti-CD20 IgG1 P343T (antibody) | 126
anti-CD20 IgG1 P343V (antibody) | 77
anti-CD20 IgG1 P343W (antibody) | 56
anti-CD20 IgG1 P343Y (antibody) | 112
anti-CD20 IgG1 Q311A (antibody) | 139
anti-CD20 IgG1 Q311D (antibody) | 38
anti-CD20 IgG1 Q311E (antibody) | 46
anti-CD20 IgG1 Q311F (antibody) | 64
anti-CD20 IgG1 Q311G (antibody) | 58
anti-CD20 IgG1 Q311I (antibody) | 437
anti-CD20 IgG1 Q311K (antibody) | 165
anti-CD20 IgG1 Q311L (antibody) | 186
anti-CD20 IgG1 Q311M (antibody) | 387
anti-CD20 IgG1 Q311N (antibody) | 54
anti-CD20 IgG1 Q311P (antibody) | 89
anti-CD20 IgG1 Q311R (antibody) | 14
anti-CD20 IgG1 Q311S (antibody) | 97
anti-CD20 IgG1 Q311T (antibody) | 131
anti-CD20 IgG1 Q311V (antibody) | 558
anti-CD20 IgG1 Q311W (antibody) | 215
anti-CD20 IgG1 Q311Y (antibody) | 94
anti-CD20 IgG1 Q386K (antibody) | 115

Substance | FcRn pH6.0 (% of wild type)
anti-CD20 IgG1 Q438G (antibody) | 98
anti-CD20 IgG1 Q438K (antibody) | 169
anti-CD20 IgG1 Q438L (antibody) | 200
anti-CD20 IgG1 Q438T (antibody) | 126
anti-CD20 IgG1 Q438W (antibody) | 164
anti-CD20 IgG1 R255K (antibody) | 41
anti-CD20 IgG1 R255N (antibody) | 27
anti-CD20 IgG1 R292A (antibody) | 85
anti-CD20 IgG1 R292E (antibody) | 65
anti-CD20 IgG1 R292F (antibody) | 64
anti-CD20 IgG1 R292G (antibody) | 60
anti-CD20 IgG1 R292I (antibody) | 56
anti-CD20 IgG1 R292L (antibody) | 68
anti-CD20 IgG1 R301W (antibody) | 119
anti-CD20 IgG1 S254A (antibody) | 7
anti-CD20 IgG1 S254D (antibody) | 7
anti-CD20 IgG1 S254E (antibody) | 6
anti-CD20 IgG1 S254F (antibody) | 0
anti-CD20 IgG1 S254G (antibody) | 7
anti-CD20 IgG1 S254H (antibody) | 0
anti-CD20 IgG1 S254I (antibody) | 25
anti-CD20 IgG1 S254K (antibody) | 9
anti-CD20 IgG1 S254L (antibody) | 74
anti-CD20 IgG1 S254M (antibody) | 0
